From patent US8388937B2, “Specific peptide binding to glypican-3” (Kyungpook National University Industry—Academic Cooperation …, priority 2009, dated 2013)
Where no end group is shown, it is not given here. The star is where a group is joined. FITC = O=C1OC2(c3ccc(O)cc3Oc3cc(O)ccc32)c2ccc(NC(=S)*)cc21

Tests used:
Format in all cases: cell-based
[1] = system: renal cell lines in which GPC-3 protein was not expressed (HEK-293, Cos-7); assay: Overlay assay of FITC-labeled peptide on cells in which GPC-3 protein was not expressed
Description: (§1) The peptide synthesized in Example 8 was subjected to an overlay assay. First, the human hepatocellular carcinoma cells (HepG2, Huh-7) and the renal cell (HEK293) were cultured to about 1×10^5 in an 8-well chamber slide, followed by washing three times with PBS for three min. In order to prevent non-specific reactions, a reaction was performed in Opti-MEM supplemented with 1% BSA for 1 hour. Again, washing was performed three times with PBS for three min, and then cells were fixed with a fixative containing ethanol and acetone at 2:1 for 3 min. The cells were mounted in Mounting medium supplemented with DAPI. FIGS. 8 through 10 illustrate the results.

[2] = target: T1, GPC-3 protein (Homo sapiens, UniProt P51654); assay: Overlay assay of FITC-labeled peptide on cell lines in which GPC-3 protein was expressed; set-up: the human hepatocellular carcinoma cell line HepG2 in which GPC-3 protein was expressed; endogenous in cells; host or cells: HepG2, Huh-7, SkMel28 (ATCC)
T1 sequence (P51654 25-554): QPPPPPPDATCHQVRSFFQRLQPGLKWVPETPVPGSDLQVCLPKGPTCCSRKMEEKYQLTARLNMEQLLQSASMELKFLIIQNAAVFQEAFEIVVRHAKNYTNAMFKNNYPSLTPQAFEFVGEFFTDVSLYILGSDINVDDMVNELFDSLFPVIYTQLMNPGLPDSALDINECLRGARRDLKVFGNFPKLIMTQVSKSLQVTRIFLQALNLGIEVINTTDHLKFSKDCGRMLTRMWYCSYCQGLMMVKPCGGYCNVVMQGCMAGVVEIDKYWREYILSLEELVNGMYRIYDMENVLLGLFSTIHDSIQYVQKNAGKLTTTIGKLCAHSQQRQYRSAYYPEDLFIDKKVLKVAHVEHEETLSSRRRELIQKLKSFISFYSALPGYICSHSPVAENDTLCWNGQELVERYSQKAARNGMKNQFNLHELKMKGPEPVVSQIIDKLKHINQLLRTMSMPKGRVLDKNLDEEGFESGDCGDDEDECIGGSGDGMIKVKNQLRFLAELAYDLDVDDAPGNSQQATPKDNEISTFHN
Description: as §1

[3] = target: T1, GPC-3 protein; assay: Overlay assay on HepG2 in competition with equivalent peptide to which FITC was not bound; set-up: the human hepatocellular carcinoma cell line HepG2 in which GPC-3 protein was expressed; endogenous in cells; host or cells: HepG2; settings: competition with unlabeled peptide for bonding to GPC-3 protein
Description: as §1
FIG. 9 illustrates image results obtained from reaction of a peptide (FITC-RLNVGGTYFLTTRQ) containing the amino acid sequence of SEQ ID No.1 to the human hepatocellular carcinoma cell line HepG2 in which GPC-3 protein was expressed with an equivalent peptide to which FITC were not bound. […] Because a peptide in which a fluorescent material was not labeled and a fluorescent material labeled peptide were competing for bonding to GPC-3 protein, a fluorescent material labeled peptide became less likely to bind to GPC-3.

| Substance | fluorescence by FITC (overlay, FIG. 7) ([1]; renal cell lines in which GPC-3 protein was not expressed: HEK-293, Cos-7) | fluorescence by FITC (overlay, FIG. 7) ([2]; cell lines in which GPC-3 protein was expressed: HepG2, Huh-7, SkMe128, HEK-293 with GPC-3) | fluorescence by FITC in presence of equivalent peptide to which FITC was not bound (FIG. 9) [3] | fluorescence by FITC (overlay, FIG. 8) ([1]; renal cell line in which GPC-3 protein was not expressed: Cos-7) | fluorescence by FITC (overlay, FIG. 8) ([2]; cell lines in which GPC-3 protein was expressed: HepG2, SkMe128, HEK-293 with GPC-3) |
| --- | --- | --- | --- | --- | --- |
| FITC-RLNVGGTYFLTTRQ ({FITC}-RLNVGGTYFLTTRQ) | fluorescence was not observed | fluorescence by FITC was observed | fluorescence was not observed | – | – |
| FITC-YFLTTRQ ({FITC}-YFLTTRQ) | – | – | – | fluorescence was not observed | fluorescence by FITC was observed |
